From patent publication US20240294638A1 come the findings set out here.

Test [1] addresses human NKG2A and human CD94 expressed on transiently transfected CHO-S cells (human) (UniProt Q13241). In words: flow cytometry, transiently transfected CHO-S cells, AF647 goat anti-human IgG secondary (MFI) [cont.), panel monalizumab analogue (IgG1-LALA]. On the technique in general: A flow cytometer gives signals particle by particle.
Test [2] concerns the target cynomolgus NKG2A and cynomolgus CD94 expressed on transiently transfected CHO-S cells (cynomolgus) (UniProt Q68VD2). The test is described as above.
The target in test [3] is cynomolgus NKG2C and cynomolgus CD94 expressed on transiently transfected CHO-S cells (cynomolgus). The test is described as above.
Another test concerns the target I168S (Homo sapiens). In words: flow cytometry, CHO-S cells transiently transfected with NKG2A variant and CD94, AF647 goat anti-human IgG secondary (MFI) [cont.), panel monalizumab analogue (IgG4].
Test [4] concerns the target human NKG2A and human CD94 expressed on transiently transfected CHO-S cells (human) (UniProt Q13241). The test is described as above.
Test [5] addresses human NKG2A M189I / human CD94 heterodimer on CHO-S cells (human) (UniProt Q13241). The description is as above.
Test [6] concerns the target human NKG2A S167A+I168S+S170L / human CD94 heterodimer on CHO-S cells (human) (UniProt Q13241). The description is as above.
The target of test [7] is human NKG2A S170L / human CD94 heterodimer on CHO-S cells (human) (UniProt Q13241). The test is described as above.
human NKG2A S170L / human CD94 heterodimer on CHO-S cells (human), sequence (chain, as listed by the source S170L S170L, chain 1 of 2): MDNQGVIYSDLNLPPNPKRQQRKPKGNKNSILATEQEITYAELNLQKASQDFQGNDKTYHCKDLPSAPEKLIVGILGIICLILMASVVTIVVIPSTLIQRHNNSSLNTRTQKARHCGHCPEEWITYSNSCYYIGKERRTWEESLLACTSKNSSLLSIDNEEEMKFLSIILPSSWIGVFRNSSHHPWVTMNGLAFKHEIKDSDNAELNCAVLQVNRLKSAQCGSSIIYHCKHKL
human NKG2A S170L / human CD94 heterodimer on CHO-S cells (human), sequence (Q13241 whole entry, chain 2 of 2): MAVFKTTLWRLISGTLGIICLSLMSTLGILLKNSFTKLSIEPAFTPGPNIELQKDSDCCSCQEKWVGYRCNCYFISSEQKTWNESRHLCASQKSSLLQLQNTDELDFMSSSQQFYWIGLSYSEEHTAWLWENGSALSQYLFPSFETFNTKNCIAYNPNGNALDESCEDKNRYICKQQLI
The target in test [8] is cynomolgus NKG2C and cynomolgus CD94 expressed on transiently transfected CHO-S cells (cynomolgus). In words: blocking of PE-conjugated HLA-E pentamer binding to transiently transfected CHO-S cells, flow cytometry (percentage binding) [cont.), panel D cNKG2C].
Test [9] deals with NKG2A on primary human NK cells (human) (UniProt P26715). In words: cell-based or functional assay.
NKG2A on primary human NK cells (human), sequence (P26715 whole entry): as the sequence (chain, as listed by the source S170L S170L, chain 1 of 2) above, with L170S counted along it
Test [10] has as its target cynomolgus NKG2A and cynomolgus CD94 expressed on transiently transfected CHO-S cells (cynomolgus) (UniProt Q68VD2). In words: blocking of PE-conjugated HLA-E pentamer binding to transiently transfected CHO-S cells, flow cytometry (percentage binding) [panel B cNKG2A].
The target of test [11] is human NKG2A and human CD94 expressed on transiently transfected CHO-S cells (human) (UniProt Q13241). In words: blocking of PE-conjugated HLA-E pentamer binding to transiently transfected CHO-S cells, flow cytometry (percentage binding) [panel A hNKG2A].
human NKG2A and human CD94 expressed on transiently transfected CHO-S cells (human), sequence (chain, as listed by the source, chain 1 of 2): as the sequence (chain, as listed by the source S170L S170L, chain 1 of 2) above, with L170S counted along it
human NKG2A and human CD94 expressed on transiently transfected CHO-S cells (human), sequence (Q13241 whole entry, chain 2 of 2): as the sequence (Q13241 whole entry, chain 2 of 2) above

human NKG2A S167A+I168S+S170L / human CD94 heterodimer on CHO-S cells (human), sequence (chain, as listed by the source S167A I168S S170L S167A I168S S170L, chain 1 of 2): as the sequence (chain, as listed by the source S170L S170L, chain 1 of 2) above, with S167A, I168S counted along it
human NKG2A S167A+I168S+S170L / human CD94 heterodimer on CHO-S cells (human), sequence (Q13241 whole entry, chain 2 of 2): as the sequence (Q13241 whole entry, chain 2 of 2) above
I168S (Homo sapiens), sequence (P26715 whole entry I168S): as the sequence (chain, as listed by the source S170L S170L, chain 1 of 2) above, with I168S, L170S counted along it
human NKG2A M189I / human CD94 heterodimer on CHO-S cells (human), sequence (chain, as listed by the source M189I M189I, chain 1 of 2): as the sequence (chain, as listed by the source S170L S170L, chain 1 of 2) above, with L170S, M189I counted along it
human NKG2A M189I / human CD94 heterodimer on CHO-S cells (human), sequence (Q13241 whole entry, chain 2 of 2): as the sequence (Q13241 whole entry, chain 2 of 2) above

A word on the EC50 (read off the curve): it is the midpoint of the concentration-response curve. Lower therefore signals greater potency. As for “monalizumab analogue (IgG1-LALA) (antibody)”, the half-maximal effective concentration (EC50 (read off the curve)) in test [1] came to 8 ng/mL; in test [2], 10 ng/mL; in [3] it was 20 ng/mL.
Take “Monalizumab Analogue (IgG4-S228P) (antibody)”: the EC50 (read off the curve) with I168S (Homo sapiens) is 2 ng/mL; in test [4], 2 ng/mL; in test [5], 2 ng/mL; in test [6], 3 ng/mL; in [7] it was 2 ng/mL. Besides, the values for the IC50 (read off the curve) in test [8], in test [10] and in test [11] were 800 ng/mL, 500 ng/mL and 200 ng/mL, respectively. In [9], this substance showed an EC50 (ug/mL) of induced NK cell cytotoxicity, median (n = 6) of 0.89 µg/mL.
